± gives the uncertainty stated by the source.
Test: self-splicing fitness, log relative to wild type (ln ratio); higher = more splicing; Tetrahymena group I intron in knt gene, E. coli kanamycin selection, DiMSum; sequences stand for … in CUCUCU…GGAGGGAAAAGUUAUCAGGCAUGCACCUGGUAGCUAGUCUUUAAACCAAUAGAUUGCAUCGGUUUAAAAGGCAAGACCGUCAAAUUGCGGGAAAGGGGUCAACAGCCGUUCAGUACCAAGUCUCAGGGGAAACUUUGAGAUGGCCUUGCAAAGGGUAUGGUAAUAAGCUGACGGACAUGGUCCUAACCACGCAGCCAAGUCCUAAGUCAACAGAUCUUCUGUUGAUAUGGAUGCAGUUCACAGACUAAAUGUCGGUCGGGGAAGAUGUAUUCUUCUCAUAAGAUAUAGUCGGACCUCUCCUUAAUGGGAGCUAGCGGAUGAAGUGAUGCAACACUGGAGCCGCUGGGAACUAAUUUGUAUGCGAAAGUAUAUUGAUUAGUUUUGGAGUACUCGUGGUCG
Method in brief: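 Pooled colonies went to amplicon sequencing on an Illumina HiSeq 2500 after six replicate transformations. The plates were LB agar with 100 μg/mL carbenicillin, 50 μM IPTG and 0.2% rhamnose, with or without 25 μg/mL kanamycin, incubated overnight at 37°C or 30°C. The E. coli BL21(DE3) library had all eight P1ex-region intron nucleotides randomised, the intron placed in the knt kanamycin-resistance gene on pET-22b(+). DiMSum fitness is the error-weighted combination of replicate fold changes, kanamycin against none, normalised to wild type.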

Row | Sequence | self-splicing fitness (ln) (30 °C) | self-splicing fitness (ln) (37 °C)
1 | AUCAAGCAAUAUUACGUGGG | -3.29 ± 0.14 | -2.04 ± 0.11
2 | CGAAAGCAAUAUUACGUAUU | -3.3 ± 0.15 | -1.51 ± 0.13
3 | ACUUAGCAAUAUUACGCAGC | -1.98 ± 0.4 | -1.43 ± 0.19
4 | GUCGAGCAAUAUUACGAAUC | -1.52 ± 0.11 | -0.929 ± 0.15
5 | GUAGAGCAAUAUUACGUGGC | -1.52 ± 0.17 | -1.29 ± 0.27
6 | AGUUAGCAAUAUUACGAAGC | -3.59 ± 0.48 | -1.98 ± 0.48
7 | GGUAAGCAAUAUUACGAACC | – | -1.64 ± 0.42
8 | GGAGAGCAAUAUUACGCGCU | -2.69 ± 0.25 | -1.67 ± 0.28
9 | GAUGAGCAAUAUUACGGCCA | -2.11 ± 0.44 | -0.871 ± 0.24
10 | UCGAAGCAAUAUUACGCAUA | -3.01 ± 0.36 | -2.72 ± 0.26
11 | CUCGAGCAAUAUUACGAUCU | -3.58 ± 0.25 | -3.53 ± 0.26
12 | CUUAAGCAAUAUUACGAGGC | -3.19 ± 0.32 | -2.53 ± 0.41
13 | CGUCAGCAAUAUUACGCUAC | -3.74 ± 0.43 | -0.956 ± 0.23
14 | UCGUAGCAAUAUUACGGUGU | -3.09 ± 0.13 | -2.7 ± 0.19
15 | CUGGAGCAAUAUUACGUUGC | -3.09 ± 0.33 | –
16 | UAAAAGCAAUAUUACGACUA | 0.337 ± 0.089 | 0.733 ± 0.12
17 | UCUCAGCAAUAUUACGUUGG | -3.58 ± 0.14 | -3.73 ± 0.23
18 | UUAGAGCAAUAUUACGCUUG | -0.891 ± 0.11 | 0.00726 ± 0.16
19 | GUUCAGCAAUAUUACGAGGG | -2.72 ± 0.19 | -0.563 ± 0.16
20 | CGUGAGCAAUAUUACGAGAC | – | -0.958 ± 0.35
21 | GAUCAGCAAUAUUACGAUCU | -4.13 ± 0.42 | -1.8 ± 0.26
22 | AAAUAGCAAUAUUACGGGAA | -3.24 ± 0.28 | -1.34 ± 0.19
23 | GAUGAGCAAUAUUACGGAAU | -3.1 ± 0.23 | -2.66 ± 0.41
24 | AUACAGCAAUAUUACGGGUG | -1.63 ± 0.065 | -1 ± 0.073
25 | GGAUAGCAAUAUUACGAUCC | -1.95 ± 0.45 | –
26 | UGUAAGCAAUAUUACGUCAC | -2.9 ± 0.19 | -2.28 ± 0.25
27 | GUCGAGCAAUAUUACGUGAC | -4.99 ± 0.45 | -2.57 ± 0.35

Row | Sequence | self-splicing fitness (ln) (30 °C) | self-splicing fitness (ln) (37 °C)
28 | GCAGAGCAAUAUUACGUAGC | -3.31 ± 0.25 | -2.77 ± 0.22
29 | UGGCAGCAAUAUUACGACAU | -1.746 ± 0.014 | -0.812 ± 0.033
30 | AGCCAGCAAUAUUACGCUAA | -2.53 ± 0.18 | -0.465 ± 0.12
31 | AAUCAGCAAUAUUACGAACA | -0.526 ± 0.12 | -0.161 ± 0.13
32 | GGCCAGCAAUAUUACGGUCA | -0.963 ± 0.1 | -0.389 ± 0.1
33 | AUGCAGCAAUAUUACGCCCU | -0.387 ± 0.22 | 0.0709 ± 0.25
34 | UCUCAGCAAUAUUACGCAUA | -2.22 ± 0.13 | -0.634 ± 0.12
35 | AAAUAGCAAUAUUACGAUCA | -0.673 ± 0.095 | 0.0414 ± 0.089
36 | CAGGAGCAAUAUUACGCGCC | – | -2.5 ± 0.26
37 | GCAGAGCAAUAUUACGGCCA | – | -2.11 ± 0.29
38 | GCAUAGCAAUAUUACGGGCG | -1.84 ± 0.12 | -1.09 ± 0.11
39 | UGAGAGCAAUAUUACGGGCU | -2.32 ± 0.37 | -2.6 ± 0.38
40 | UAGUAGCAAUAUUACGGAAC | -2.97 ± 0.3 | -3.42 ± 0.42
41 | UAAGAGCAAUAUUACGCAUG | -2.75 ± 0.28 | -1.2 ± 0.23
42 | CCCAAGCAAUAUUACGGUAC | -4.14 ± 0.23 | -2.71 ± 0.17
43 | GAAGAGCAAUAUUACGGCCG | -2.63 ± 0.42 | -0.854 ± 0.29
44 | GAAGAGCAAUAUUACGACUG | -3.86 ± 0.39 | -1.88 ± 0.16
45 | ACGCAGCAAUAUUACGCCUU | -0.484 ± 0.082 | 0.1 ± 0.095
46 | CUUUAGCAAUAUUACGGGGG | -4.05 ± 0.46 | -2.65 ± 0.45
47 | UGCUAGCAAUAUUACGGGCU | -2.57 ± 0.13 | -1.89 ± 0.14
48 | GUUGAGCAAUAUUACGACUC | 0.144 ± 0.2 | -0.535 ± 0.19
49 | UCGCAGCAAUAUUACGCCGC | – | -1.21 ± 0.32
50 | UUUUAGCAAUAUUACGGACU | -2.67 ± 0.39 | -0.49 ± 0.35
51 | CCAAAGCAAUAUUACGAGUA | -3.15 ± 0.23 | -2.6 ± 0.23
52 | AGCCAGCAAUAUUACGAAGC | -1.65 ± 0.22 | -1.96 ± 0.37
53 | AAUCAGCAAUAUUACGAAAA | -1.45 ± 0.092 | -0.169 ± 0.1
54 | UAUCAGCAAUAUUACGGGGA | -1.76 ± 0.094 | -0.643 ± 0.1

Row | Sequence | self-splicing fitness (ln) (30 °C) | self-splicing fitness (ln) (37 °C)
55 | GAAUAGCAAUAUUACGCAGG | -2.6 ± 0.2 | -2.28 ± 0.21
56 | CGAAAGCAAUAUUACGCUUU | -3.54 ± 0.35 | -2.7 ± 0.41
57 | AGCCAGCAAUAUUACGACUU | -1.6 ± 0.1 | -0.895 ± 0.12
58 | CCGCAGCAAUAUUACGGACC | -3.45 ± 0.41 | –
59 | UUACAGCAAUAUUACGUUCA | -0.535 ± 0.11 | 0.086 ± 0.12
60 | CGAGAGCAAUAUUACGAUUC | -2.96 ± 0.38 | -1.19 ± 0.29
61 | AUUCAGCAAUAUUACGGCAG | -1.14 ± 0.11 | -0.688 ± 0.14
62 | GGCCAGCAAUAUUACGGGAC | -2.68 ± 0.12 | -1.21 ± 0.15
63 | AAUUAGCAAUAUUACGAUCG | -0.473 ± 0.13 | 0.0147 ± 0.16
64 | UAAGAGCAAUAUUACGUAUA | -2.64 ± 0.26 | -1.97 ± 0.25
65 | CAUUAGCAAUAUUACGACUA | -1.75 ± 0.49 | –
66 | GGCAAGCAAUAUUACGAGUA | -1.52 ± 0.15 | -0.685 ± 0.13
67 | AGGGAGCAAUAUUACGUCAG | – | -2.97 ± 0.35
68 | GCCCAGCAAUAUUACGGCUC | -0.866 ± 0.11 | -0.219 ± 0.14
69 | UUACAGCAAUAUUACGAAUU | -3.13 ± 0.22 | -3.1 ± 0.24
70 | GUGGAGCAAUAUUACGACCU | -1.22 ± 0.094 | -0.548 ± 0.11
71 | AGUUAGCAAUAUUACGAUAG | -3.19 ± 0.29 | -1.77 ± 0.29
72 | UACAAGCAAUAUUACGUGAA | -2.42 ± 0.078 | -1.7 ± 0.1
73 | UCAUAGCAAUAUUACGGAUU | -3.52 ± 0.12 | -3.06 ± 0.16
74 | ACCCAGCAAUAUUACGACAU | -0.995 ± 0.011 | -0.241 ± 0.032
75 | UCGAAGCAAUAUUACGGAUU | -3.96 ± 0.32 | -2.56 ± 0.25
76 | ACUGAGCAAUAUUACGUUAC | -3.95 ± 0.3 | -2.9 ± 0.38
77 | AACAAGCAAUAUUACGAUCG | -1.4 ± 0.076 | -0.996 ± 0.097
78 | UAUCAGCAAUAUUACGCGGG | -0.936 ± 0.076 | -1.14 ± 0.098
79 | UAACAGCAAUAUUACGGUAU | -3.01 ± 0.11 | -2.06 ± 0.17
